# B1: Csd2 from B. halodurans, Strep-II-tagged, co-expressed with Cas5d, Csd1 and pre-crRNA (natural protein, UniProt Q9KFY1 1-283, looked up)
# chain: MTILDHKIDFAVILSVTKANPNGDPLNGNRPRQNYDGHGEISDVAIKRKIRNRLLDMEEPIFVQSDDRKADSFKSLRDRADSNPELAKMLKAKNASVDEFAKIACQEWMDVRSFGQVFAFKGSNLSVGVRGPVSIHTATSIDPIDIVSTQITKSVNSVTGDKRSSDTMGMKHRVDFGVYVFKGSINTQLAEKTGFTNEDAEKIKRALITLFENDSSSARPDGSMEVHKVYWWEHSSKLGQYSSAKVHRSLKIESKTDTPKSFDDYAVELYELDGLGVEVIDGQ
# B2: Csd1 from B. halodurans, co-expressed with Cas5d, Csd2 and pre-crRNA (natural protein, UniProt Q9KFY2 1-627, looked up)
# chain: MSWLLHLYETYEANLDQVGKTVKKGEDREYTLLPISHTTQNAHIEVTLDEDGDFLRAKALTKESTLIPCTEEAASRSGSKVAPYPLHDKLSYVAGDFVKYGGKIKNQDDAPFDTYIKNLGEWANSPYATEKVKCIYTYLKKGRLIEDLVDAGVLKLDENQQLIEKWEKRYEELLGEKPAIFSSGATDQASAFVRFNVFHPESIDDVWKDKEMFDSFISFYNDKLGEEDICFVTGNRLPSTERHANKIRHAADKAKLISANDNSGFTFRGRFKTSREAVGISYEVSQKAHNALKWLIHRQSKSIDDRVFLVWSNDNSLVPNPDEDAVDIMKHANRELERDPDTGQIFAGEVKKAIGGYRSDLNYQPEVHILVLDSATTGRMAVLYYRSLNKELYLNRLEAWHDSCAWEHRYRRDEKEFISFYGAPATKDIAFAAYGPRASEKVIKDLMERMLPCIVDGRRVPKDIVRSAFQRASNPVSMERWEWEKTLSITCALIRKMHIEQKEEWGVPLDKSSTDRSYLFGRLLAVADVLERGALGKDETRATNAIRYMNSYSKNPGRTWKTIQESLQPYQAKLGTKATYLSKLVDEIGDQFEPGDFNNNPLTEQYLLGFYSQRRELYKKKEEETNQ
# Molecular target: T1, Cas5d from B. halodurans, His6-tagged, co-expressed with Csd1, Csd2 and pre-crRNA (B. halodurans, UniProt Q9KFY3 1-236)
# T1 sequence: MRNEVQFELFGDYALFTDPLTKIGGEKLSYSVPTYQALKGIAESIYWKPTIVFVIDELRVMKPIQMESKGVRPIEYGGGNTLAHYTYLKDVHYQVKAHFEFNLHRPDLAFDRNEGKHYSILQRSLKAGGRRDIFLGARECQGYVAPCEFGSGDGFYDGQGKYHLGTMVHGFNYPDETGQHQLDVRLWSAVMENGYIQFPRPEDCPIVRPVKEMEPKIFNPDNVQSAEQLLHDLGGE
# Experiment: SEC
row,Binder,stoichiometry N
1,B1,~6 copies in the complex (with two copies of Cas5d and one copy of Csd1)
2,B2,~1 copies in the complex (with two copies of Cas5d and six copies of Csd2)

# Source: article PMC3479641 (Structure (London, England : 1993), 2012)
